Data reported in the Human Domainome abundance scans (Beltran et al. 2025).
± gives the uncertainty stated by the source.

B1: Tripartite motif-containing protein 44, residues 174 to 218; numbered along this chain, Q96DX7 (parent)
chain: VAKRKCPDHGLDLSTYCQEDRQLICVLCPVIGAHQGHQLSTLDEA

Variants of: B1
Test: abundance fitness (aPCA) (normalised: wild type 0, dead -1); higher = more abundant; growth selection in yeast, the domain comes from the species named
Conditions: Homo sapiens

Row | Variant | abundance fitness
1 | VAKRKCPDHGLDLSTYCQEDRQLICVLCPVIGAHQGHQLSTLDMA [E44M] | -0.058 ± 0.039
2 | VAKRKCPDHGLDLSTYCQEDRQLICVLCPVIGAHQGHQLSTLDWA [E44W] | -0.14 ± 0.028
3 | VAKRKCPDHGLDLSTYCQEDRQLICVLCPVIGAHQGHQLSTLDYA [E44Y] | -0.232 ± 0.046
4 | VAKRKCPDHGLDLSTYWQEDRQLICVLCPVIGAHQGHQLSTLDEA [C17W] | -0.931 ± 0.045
5 | VAKRKCPDHGLDLSTYMQEDRQLICVLCPVIGAHQGHQLSTLDEA [C17M] | -0.779 ± 0.067
6 | VAKRKCPDHGLDLSTYCQEDRQLICVLCPVIGAHIGHQLSTLDEA [Q35I] | -0.045 ± 0.036
7 | VAKRKCPDHGLDLSTYCQEDRQLICVLCPVIGAHDGHQLSTLDEA [Q35D] | -0.143 ± 0.035
8 | VAKRKCPDHGLFLSTYCQEDRQLICVLCPVIGAHQGHQLSTLDEA [D12F] | -0.15 ± 0.041
9 | VAKRKCPDHGLHLSTYCQEDRQLICVLCPVIGAHQGHQLSTLDEA [D12H] | 0.017 ± 0.17
10 | VAKRKCPDHGLDLSTYCQEDRQLICVLCPVIGAHQGHQLTTLDEA [S40T] | -0.066 ± 0.029
11 | VAKRKCPDHGLDLSTYCQEDRQLICVLCPVIGAHQGHQLATLDEA [S40A] | -0.008 ± 0.027
12 | VAKRKCPDHGLDLSTYCQEDRQLICVLCPVIGAHQGHQLETLDEA [S40E] | -0.012 ± 0.029
13 | VAKRKCPDHGLDLSTYCQEDRQEICVLCPVIGAHQGHQLSTLDEA [L23E] | 0.066 ± 0.03
14 | VAKRKCPDHGLDLSTYCQEDRQKICVLCPVIGAHQGHQLSTLDEA [L23K] | -0.041 ± 0.04
15 | VAKRKCPDHGLDLSTYCQEDRQLICVLCPVIGAHQGHQQSTLDEA [L39Q] | 0.033 ± 0.032
16 | VAKRKCPDHGLDLSTYCQEDRQLICVLCPVIGAHQGHQCSTLDEA [L39C] | -0.06 ± 0.034
17 | VAKRKCPDHGLDLSTYCQEDRQLICVLCPVIGAHQGHQPSTLDEA [L39P] | -0.032 ± 0.034
18 | VAKRKCPDHGLDLSTYCQEDRQLICVLCDVIGAHQGHQLSTLDEA [P29D] | -0.077 ± 0.034
19 | VAKRKCPDHGLDLSTYCQEDRQLICVLCCVIGAHQGHQLSTLDEA [P29C] | -0.2 ± 0.039

Row | Variant | abundance fitness
20 | VAKRKCPDHGLDLSKYCQEDRQLICVLCPVIGAHQGHQLSTLDEA [T15K] | 0.048 ± 0.035
21 | VAKRKCPDHGLDLSQYCQEDRQLICVLCPVIGAHQGHQLSTLDEA [T15Q] | 0.039 ± 0.033
22 | VAKRKCPDHGLDLSWYCQEDRQLICVLCPVIGAHQGHQLSTLDEA [T15W] | -0.2 ± 0.03
23 | VAKRKCPDHGLDLSSYCQEDRQLICVLCPVIGAHQGHQLSTLDEA [T15S] | -0.03 ± 0.03
24 | VAKRKCPDHGLDLSNYCQEDRQLICVLCPVIGAHQGHQLSTLDEA [T15N] | 0.014 ± 0.039
25 | VAKRKCPDHGLDLSTYCQEDRQLIQVLCPVIGAHQGHQLSTLDEA [C25Q] | -0.65 ± 0.043
26 | VAKRKCPDHGLDLSTYCQEDRQLIYVLCPVIGAHQGHQLSTLDEA [C25Y] | -0.601 ± 0.12
27 | VAKRKCPDHGLDLSTYCQEDRQLIGVLCPVIGAHQGHQLSTLDEA [C25G] | -0.774 ± 0.031
28 | VAKRKCPDHGLDLSTYCQEDRQLIRVLCPVIGAHQGHQLSTLDEA [C25R] | -0.728 ± 0.031
29 | VAKRKCPKHGLDLSTYCQEDRQLICVLCPVIGAHQGHQLSTLDEA [D8K] | 0.047 ± 0.047
30 | VAKRKCPDHGLDLSTYCQEDRQLICVLCPVIGAHQGHCLSTLDEA [Q38C] | -0.051 ± 0.037
31 | VAKRKCPDHGLDLSTYCQEDRQLICVLCPVIGAHQGHTLSTLDEA [Q38T] | 0.039 ± 0.033
32 | VAKRKCPDHGLDLSTYCQEDRQLICVLCPVIGAHQGHRLSTLDEA [Q38R] | -0.006 ± 0.026
33 | VAKRKCPDHGLDLSTYCQEDRQLICVLCPVIGAHQGHVLSTLDEA [Q38V] | -0.071 ± 0.027
34 | VAKRKCPDHGLDLITYCQEDRQLICVLCPVIGAHQGHQLSTLDEA [S14I] | 0.023 ± 0.058
35 | VAKRKCPDHGLDLKTYCQEDRQLICVLCPVIGAHQGHQLSTLDEA [S14K] | 0.014 ± 0.03
36 | VAKRKCPDHGLDLSTYCQEDRQLICVLCPVIGAHQGHQLSTLDED [A45D] | 0.002 ± 0.05
37 | VAKRKCPDHGLDLSTYCQEDRQLICVLCPVIGAHQGHQLSTLDEL [A45L] | -0.093 ± 0.045
38 | VAKRKCPDHQLDLSTYCQEDRQLICVLCPVIGAHQGHQLSTLDEA [G10Q] | -0.027 ± 0.031

Row | Variant | abundance fitness
39 | VAKRKCPDHILDLSTYCQEDRQLICVLCPVIGAHQGHQLSTLDEA [G10I] | -0.445 ± 0.14
40 | VAKRKCPDHGLDLSTYCQEDRQLICVLCPVIGAHQGHQLSTRDEA [L42R] | 0.024 ± 0.026
41 | VAKRKCPDHGLDLSTYCQEDRQLICVLCPVIGAHQGHQLSTPDEA [L42P] | 0.027 ± 0.035
42 | VAKRKCPDHGLDLSTYCQEDRQLICVLCPVIGAHQGHQLSTADEA [L42A] | 0.045 ± 0.027
43 | VAKRKCPDHGLDLSTYCQEDMQLICVLCPVIGAHQGHQLSTLDEA [R21M] | -0.016 ± 0.034
44 | VAKRKCPDHGLDLSTYCQEDCQLICVLCPVIGAHQGHQLSTLDEA [R21C] | 0.009 ± 0.032
45 | VAKRKCPDHGLDLSTYCQEDPQLICVLCPVIGAHQGHQLSTLDEA [R21P] | -0.691 ± 0.046
46 | VAKRKCPDHGLDLSTYCQPDRQLICVLCPVIGAHQGHQLSTLDEA [E19P] | -0.198 ± 0.035
47 | VAKRKCPDHGLDLSTYCQMDRQLICVLCPVIGAHQGHQLSTLDEA [E19M] | -0.108 ± 0.032
48 | VAKRKCPDHGLDLSTYCQFDRQLICVLCPVIGAHQGHQLSTLDEA [E19F] | -0.097 ± 0.05
49 | VAKRKCPDHGLDLSTYCQHDRQLICVLCPVIGAHQGHQLSTLDEA [E19H] | -0.032 ± 0.045
50 | VAKRKCPDHGLDLSTYCQWDRQLICVLCPVIGAHQGHQLSTLDEA [E19W] | -0.153 ± 0.028
51 | VAKRKCPDHGLDLSTYCQQDRQLICVLCPVIGAHQGHQLSTLDEA [E19Q] | -0.062 ± 0.031
52 | VAKRKCPDHGLDLSTYCQADRQLICVLCPVIGAHQGHQLSTLDEA [E19A] | -0.045 ± 0.027
53 | VAKRKCPDHGLDLSTYCQEDRQLICVLLPVIGAHQGHQLSTLDEA [C28L] | -1.12 ± 0.059
54 | VAKRKCPDHGLDLSTYCQEDRQLICVLVPVIGAHQGHQLSTLDEA [C28V] | -1.06 ± 0.051
55 | VAKRKCPDHGLDLSTYCREDRQLICVLCPVIGAHQGHQLSTLDEA [Q18R] | -0.043 ± 0.026
56 | VAKRKCPDHGLDLSTYCCEDRQLICVLCPVIGAHQGHQLSTLDEA [Q18C] | -0.041 ± 0.037
57 | VAKRKCPDHGLDLSTYCIEDRQLICVLCPVIGAHQGHQLSTLDEA [Q18I] | -0.058 ± 0.1
